In article PMC10938628 (Science Advances, 2022):

Columns and labels:
[1] = target: intact CarHC (C-terminal domain of the photoreceptor CarH); assay: SEC
[2] = target: the molecule itself; assay: SEC + other: dynamic light scattering
SEC = target: the molecule itself; assay: SEC

How did the stoichiometry N [1] turn out when “intact CarHC (C-terminal domain of the photoreceptor CarH) (domain or fragment)” was run?
The stoichiometry N was 4.

B1: CarHCC (Phe161-Leu276 of the photoreceptor CarH; C-terminal Rossmann-fold B12-binding segment of split CarHC) (domain or fragment, UniProt Q53W62 161-276, looked up)
chain: FPPGPPVLVTTPPGERHEIGAMLAAYHLRRKGVPALYLGPDTPLPDLRALARRLGAGTVVLSAVLSEPLRALPDGALKDLAPRVFLGGQGAGPEEARRLGAEYMEDLKGLAEALWL
B1 was tested. Which “stoichiometry N” value [2] did it give?
The value was 4.

B2: reconstituted split CarHC complex (CarHCN + CarHCC held together by a cobalamin) (complex)
chain 1: PEDLGTGLLEALLRGDLAGAEALFRRGLRFWGPEGVLEHLLLPVLREVGEAWHRGEIGVAEEHLASTFLRARLQELLDLAGFPPGPP
chain 2: FPPGPPVLVTTPPGERHEIGAMLAAYHLRRKGVPALYLGPDTPLPDLRALARRLGAGTVVLSAVLSEPLRALPDGALKDLAPRVFLGGQGAGPEEARRLGAEYMEDLKGLAEALWL
With B2 as the molecule, how does the “stoichiometry N” value (SEC) read?
The value was 4.
